This is an account of results in US20050182242A1, “Global analysis of protein activities using proteome chips” (priority 2001, published 2005).

What all share (conditions): liposome binding signal on yeast proteome chip, Cy3-streptavidin detection
The subject of one series is PI(3,4)P2 liposomes. In words: Yeast proteome chip probed with PI(3,4)P2 liposomes.
Series [1] deals with phosphatidylcholine (PC) liposomes. The series can be described thus: Yeast proteome chip probed with PC liposomes. Put shortly:
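Signal comes from Cy3- or Cy5-streptavidin recognising 1% (w/w) biotin-DHPE carried in every liposome. Liposomes were PC alone or PC containing 5% (w/w) of a single phosphoinositide, applied to arrayed GST-fusion yeast proteins for 1 h at RT.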

A further series has as its system PI(3)P liposomes. In words: Yeast proteome chip probed with PI(3)P liposomes. The source says: To identify PI-binding proteins in yeast, liposomes were used as probes because the liposome provides the most relevant physiological condition to assay the interactors. Six types of liposomes were used. Each contains phosphatidylcholine (“PC”) with 1% (w/w) N-(biotinoyl)-1,2-dihexadecanoyl-sn-glycero-3-phosphoethanolamine, triethylammonium salt (biotin DHPE). The biotinylated lipid serves as a label that can be detected by Cy3-streptavidin (21). In addition to PC, the five other liposomes contain either 5% (w/w) PI(3)P, PI(4)P, PI(3,4)P2, PI(4,5)P2, or PI(3,4,5)P3 (FIG. 3A).
The protein-liposome interaction was assayed as follows. Appropriate amounts of each lipid in chloroform were mixed and dried under nitrogen. The lipid mixture was resuspended in TBS buffer by vortexing. The liposomes were created by sonication. Blocked proteome chips were washed three to five times in PBS buffer, and the extra liquid on the glass surface was removed by tapping the slides vertically on a KIMWIPE™. 200 μl of liposome solution was added to the proteome chip and immediately covered by a hydrophobic plastic cover slip (GRACE BIO-LAB™, USA). After trapped air bubbles were removed, the chip was incubated in a humidity chamber at RT for one hour. To remove the cover slip, the chip was immersed into large volume of PBS buffer (50 ml), so that the slip would float away. The chip was then moved to a second PBS bath (>50 ml) and washed 3×5 min with shaking at RT. After removing extra liquid on the surface of the chip, about 100 μl of Cy3 or Cy5 conjugated streptavidin (PIERCE™, USA; 1:2000 to 1:4000 dilution) was added to the surface and covered by a hydrophobic plastic cover slip (GRACE BIO-LABS™, USA). The chip was incubated for greater than 30 min in the dark at RT. The chip was then washed as described above. To completely remove the liquid on the chip, the chip was spun to dryness at 1500-2000 rpm for 5-10 min at RT.
• 1. S. Fields, Y. Kohara, D. J. Lockhart, Proc. Natl. Acad. Sci. 96, 8825 (1999); A. Goffeau et al., Science 274, 563 (1996). • 2 P. Ross-Macdonald et al., Nature 402, 413 (1999); J. L., DeRisi, V. R. Iyer, P. O. Brown, Science 278, 680 (1997); E. A. Winzeler et al., Science 285, 901 (1999). P. Uetz et al., Nature 403, 623 (2000); T. Ito et al., Proc. Natl. Acad. Sci. USA. 97, 1143 (2000) • 3 H. Zhu, M. Snyder, Curr. Opin. Chem. Biol. 5, 40 (2001). • 4 M. R. Martzen et al., Science 286, 1153 (1999). • 5 H. Zhu et al., Nat. Genet. 26, 283 (2000). • 6 G. MacBeath, S. L. Schreiber, Science 289, 1760 (2000). • 7 A. Caveman, J. Cell Sci. 113, 3543 (2000). • 8 P. Arenkov et al., Anal. Biochem 278, 123 (2000). • 9 D. A. Mitchell, T. K. Marshall, R. J. Deschenes, Yeast 9, 715 (1993). The expression vector pEGH was created by inserting an RGS-HisX6 epitope tag between the GST gene and the polycloning site of pEG(KG). The yeast ORFs were cloned using the strategy described previously (5), except every step was done in a 96-well format. Plasmid DNAs confirmed by DNA sequencing were reintroduced into both yeast (Y258) and E. coli (DH5a). […] 0.1 mM calcium was present in buffers in all subsequent steps. The chip was washed three times with PBS at RT. Cy3-conjugated streptavidin (Jackson IR, USA) (1:5000 dilution) was added to the chip and incubated for 30 min at RT. After extensive washing, the chip was spun dry and scanned using a microarray scanner; the data was subsequently acquired with the GENEPIX™ array densitometry software (Axon, USA). • 12 S. S. Hook, A. R. Means, Annu. Rev. Pharmacol. Toxicol.41, 471 (2001). • 13 M. S. Cyert, R. Kunisawa, D. Kaim, J. Thorner, Proc. Natl. Acad. Sci. USA 88, 7376 (1991). • 14 D. A. Stirling, K. A. Welch, M. J. Stark, EMBO J. 13, 4329 (1994). • 15 F. Bohl, Kruse, EMBO J. 19, 5514 (2000); E. Bertrand et al., Mol. Cell 2, 437 (1998). • 16 D. C. Winter, E. Y. Choe, R. Li, Proc. Nat. Acad Sci. USA 96, 7288 (1999). • 17 C.

Another series deals with PI(4)P liposomes. The series can be described thus: Yeast proteome chip probed with PI(4)P liposomes.
The next series has as its system PI(4,5)P2 liposomes. The series can be described thus: Yeast proteome chip probed with PI(4,5)P2 liposomes.
Another series relates to PI(3,4,5)P3 liposomes. The series can be described thus: Yeast proteome chip probed with PI(3,4,5)P3 liposomes.

B1: URA8: yeast GST-HisX6 fusion protein on proteome chip (protein, UniProt P38627 1-578, looked up)
CTP synthase 2: MKYVVVSGGVISGIGKGVLASSTGMLLKTLGLKVTSIKIDPYMNIDAGTMSPLEHGECFVLDDGGETDLDLGNYERYLGITLSRDHNITTGKIYSHVISRERRGDYLGKTVQIVPHLTNAIQDWIQRVSKIPVDDTGLEPDVCIIELGGTVGDIESAPFVEALRQFQFEVGRENFALIHVSLVPVIHGEQKTKPTQAAIKDLRSLGLIPDMIACRCSEELNRSTIDKIAMFCHVGPEQVVNVHDVNSTYHVPLLLLKQHMIDYLHSRLKLGEVPLTLEDKERGSQLLTNWENMTKNLDDSDDVVKIALVGKYTNLKDSYLSVTKSLEHASMKCRRQLEILWVEASNLEPETQEVDKNKFHDSWNKLSSADGILVPGGFGTRGIEGMILAAKWARESGVPFLGVCLGLQVAAIEFARNVIGRPNSSSTEFLDETLLAPEDQVVIYMPEIDKEHMGGTMRLGLRPTIFQPNSEWSNIRKLYGEVNEVHERHRHRYEINPKIVNDMESRGFIFVGKDETGQRCEIFELKGHPYYVGTQYHPEYTSKVLEPSRPFWGLVAAASGTLGEVIKDINLSEGNENE
modifications: GST-His6 tag
notes: yeast GST-HisX6 fusion protein on proteome chip
On to B1, for which the “PI(3, 4)P2” value with PI(3,4)P2 liposomes is on record as −2.83. For the same molecule, the PC in series [1] came to 20.25. Moreover, the “PI(3)P” value in the series on PI(3)P liposomes is recorded as 11.50. Moreover, the “PI(4)P” value with PI(4)P liposomes is 34.40. The “PI(4, 5)P2” value with PI(4,5)P2 liposomes was determined as 23.95. The “PI(3, 4, 5)P3” value with PI(3,4,5)P3 liposomes is recorded as 42.86.

B2: MAG1: yeast GST-HisX6 fusion protein on proteome chip (protein, UniProt P22134 1-296, looked up)
DNA-3-methyladenine …: MKLKREYDELIKADAVKEIAKELGSRPLEVALPEKYIARHEEKFNMACEHILEKDPSLFPILKNNEFTLYLKETQVPNTLEDYFIRLASTILSQQISGQAAESIKARVVSLYGGAFPDYKILFEDFKDPAKCAEIAKCGLSKRKMIYLESLAVYFTEKYKDIEKLFGQKDNDEEVIESLVTNVKGIGPWSAKMFLISGLKRMDVFAPEDLGIARGFSKYLSDKPELEKELMRERKVVKKSKIKHKKYNWKIYDDDIMEKCSETFSPYRSVFMFILWRLASTNTDAMMKAEENFVKS
modifications: GST-His6 tag
notes: as for B1
Take B2: the “PI(3, 4)P2” value in the series with PI(3,4)P2 liposomes is reported as −2.20. In series [1], the PC is recorded as 10.86. Further, the “PI(3)P” value with PI(3)P liposomes is 6.50. Moreover, in the series with PI(4)P liposomes, the “PI(4)P” value was 21.34. Besides, the “PI(4, 5)P2” value in the series on PI(4,5)P2 liposomes is given as 5.23. The “PI(3, 4, 5)P3” value with PI(3,4,5)P3 liposomes came to 29.02.

B3: KSS1: yeast GST-HisX6 fusion protein on proteome chip (protein, UniProt P14681 1-368, looked up)
Mitogen-activated protein …: MARTITFDIPSQYKLVDLIGEGAYGTVCSAIHKPSGIKVAIKKIQPFSKKLFVTRTIREIKLLRYFHEHENIISILDKVRPVSIDKLNAVYLVEELMETDLQKVINNQNSGFSTLSDDHVQYFTYQILRALKSIHSAQVIHRDIKPSNLLLNSNCDLKVCDFGLARCLASSSDSRETLVGFMTEYVATRWYRAPEIMLTFQEYTTAMDIWSCGCILAEMVSGKPLFPGRDYHHQLWLILEVLGTPSFEDFNQIKSKRAKEYIANLPMRPPLPWETVWSKTDLNPDMIDLLDKMLQFNPDKRISAAEALRHPYLAMYHDPSDEPEYPPLNLDDEFWKLDNKIMRPEEEEEVPIEMLKDMLYDELMKTME
modifications: GST-His6 tag
notes: as for B1
As to B3, in the series on PI(3,4)P2 liposomes, the “PI(3, 4)P2” value was found to be 87.91. For the same molecule, the PC in series [1] is 16.43. Moreover, in the series with PI(3)P liposomes, the “PI(3)P” value is on record as −11.50. Moreover, the “PI(4)P” value in the series with PI(4)P liposomes is 10.45. Also, in the series with PI(4,5)P2 liposomes, the “PI(4, 5)P2” value is reported as −2.61. Besides, in the series on PI(3,4,5)P3 liposomes, the “PI(3, 4, 5)P3” value was 0.23.

B4: APG7: yeast GST-HisX6 fusion protein on proteome chip (protein, UniProt P38862 1-630, looked up)
Ubiquitin-like …: MSSERVLSYAPAFKSFLDTSFFQELSRLKLDVLKLDSTCQPLTVNLDLHNIPKSADQVPLFLTNRSFEKHNNKRTNEVPLQGSIFNFNVLDEFKNLDKQLFLHQRALECWEDGIKDINKCVSFVIISFADLKKYRFYYWLGVPCFQRPSSTVLHVRPEPSLKGLFSKCQKWFDVNYSKWVCILDADDEIVNYDKCIIRKTKVLAIRDTSTMENVPSALTKNFLSVLQYDVPDLIDFKLLIIRQNEGSFALNATFASIDPQSSSSNPDMKVSGWERNVQGKLAPRVVDLSSLLDPLKIADQSVDLNLKLMKWRILPDLNLDIIKNTKVLLLGAGTLGCYVSRALIAWGVRKITFVDNGTVSYSNPVRQALYNFEDCGKPKAELAAASLKRIFPLMDATGVKLSIPMIGHKLVNEEAQHKDFDRLRALIKEHDIIFLLVDSRESRWLPSLLSNIENKTVINAALGFDSYLVMRHGNRDEQSSKQLGCYFCHDVVAPTDSLTDRTLDQMCTVTRPGVAMMASSLAVELMTSLLQTKYSGSETTVLGDIPHQIRGFLHNFSILKLETPAYEHCPACSPKVIEAFTDLGWEFVKKALEHPLYLEEISGLSVIKQEVERLGNDVFEWEDDESDEIA
modifications: GST-His6 tag
notes: as for B1
As for B4, the “PI(3, 4)P2” value in the series with PI(3,4)P2 liposomes is on record as −0.63. Besides, in series [1], the PC amounted to 5.87. Also, in the series with PI(3)P liposomes, the “PI(3)P” value is reported as −22.50. The “PI(4)P” value in the series on PI(4)P liposomes stood at 18.29. In addition, the “PI(4, 5)P2” value with PI(4,5)P2 liposomes amounted to 59.23. In addition, the “PI(3, 4, 5)P3” value in the series on PI(3,4,5)P3 liposomes is given as 0.45.

B5: YLR020C: yeast GST-HisX6 fusion protein on proteome chip (protein, UniProt Q07950 1-538, looked up)
Sterol esterase 2: MVNKVVDEVQRLVSAIILTSFMTGLFILSLWKNYVTVHFQHKNDPRDTRSSRTKIQPNDKKKKRPARHSRPLSISSTTPLDLQRDQENNIEYDRTVTSKLSMTSNASLSENGDGNANIKMETNVNQAPYAAENPFQNIALAEDTKLVPDLKYYYKEYGIDIEEFEVETDDGFIIDLWHFKSRLNDGVEEVKREPILLLHGLLQSCGAFASSGRKSLAYFLYESGFDVWLGNNRCGLNAKWNMKKLGNDHSKKWDWDMHQMVQYDLKALINYVLDSTGYAKLSLVAHSQGTTQGFMGLVNGEKLYASDFKLVDKLENFVALAPAVYPGPLLDEKAFVRLMAKGIDSPWYFGRRSFIPLMMTMRKLMVGTKIFSFLSYIMFNYLFDWNDVLWDRVLRDRNFLFSPVHISVKLMQWWLSPLPNKLSFKKGAEKIFPDKKTWFPIAKNDDDSGNNLDNNKLHLNPKRQNSEEFPHIIMFIPKQDRLVDGERLINHFINHEANAVYKIWYIDEYSHLDVLWAHDVIDRIGKPMIENLRFPNAR
modifications: GST-His6 tag
notes: as for B1
Turning to B5, the “PI(3, 4)P2” value in the series with PI(3,4)P2 liposomes came out at 2.67. Further, in series [1], the PC was determined as 7.34. Besides, the “PI(3)P” value in the series with PI(3)P liposomes was 3.75. Besides, in the series on PI(4)P liposomes, the “PI(4)P” value is −5.66. In addition, in the series with PI(4,5)P2 liposomes, the “PI(4, 5)P2” value was 15.68. In the series with PI(3,4,5)P3 liposomes, the “PI(3, 4, 5)P3” value worked out at 1.24.
